Assay results: EP4803151A2 (Lepu Biopharma Co., Ltd., dated 2026)

B1: 310P3C5-z7 humanized antibody (antibody, human IgG1, kappa, V domains shown)
VH: QVQLVQSGAEVKKPGASVKVSCKASGYTFTDFYMNWVRQAPGQGLEWIGDANPNNGGTTHNPRFKGRATLTVDTSTSTAYMELRSLRSDDTAVYYCARGGLPGDFDYWGQGTTVTVSS
VL: DIQMTQSPSSVSASVGDRVTITCKASEDIYNRLAWYQQKPGKAPKLLISGVTSLETGVPSRFSGSGSGTDFTLTISSLQPEDFATYYCQQYWSFPWTFGGGTKVEIKR
notes: HU-VH1-3 with HU-VL1-2; human IgG1
B2: 310P3C5-z9 humanized antibody (antibody, human IgG1, kappa, V domains shown)
VH: QVQLVQSGAEVKKPGASVKVSCKASGYTFTDFYMNWVRQAPGQGLEWMGDANPNNGGTTHNPRFKGRVTMTTDTSTSTAYMELRSLRSDDTAVYYCARGGLPGDFDYWGQGTTVTVSS
VL: DIQMTQSPSSVSASVGDRVTITCKASEDIYNRLAWYQQKPGKAPKLLISGVTSLETGVPSRFSGSGSGKDFTLTISSLQPEDFATYYCQQYWSFPWTFGGGTKVEIKR
notes: HU-VH1-1 with HU-VL1-3; human IgG1
B3: 310P3C5-z2 humanized antibody (antibody, human IgG1, kappa, V domains shown)
VH: QVQLVQSGAEVKKPGASVKVSCKASGYTFTDFYMNWVRQAPGQGLEWIGDANPNNGGTTHNPRFKGRATMTTDTSTSTAYMELRSLRSDDTAVYYCARGGLPGDFDYWGQGTTVTVSS
VL: DIQMTQSPSSVSASVGDRVTITCKASEDIYNRLAWYQQKPGKAPKLLIYGVTSLETGVPSRFSGSGSGTDFTLTISSLQPEDFATYYCQQYWSFPWTFGGGTKVEIKR
notes: HU-VH1-2 with HU-VL1-1; human IgG1
B4: 310P3C5-z3 humanized antibody (antibody, human IgG1, kappa, V domains shown)
VH: QVQLVQSGAEVKKPGASVKVSCKASGYTFTDFYMNWVRQAPGQGLEWIGDANPNNGGTTHNPRFKGRATLTVDTSTSTAYMELRSLRSDDTAVYYCARGGLPGDFDYWGQGTTVTVSS
VL: DIQMTQSPSSVSASVGDRVTITCKASEDIYNRLAWYQQKPGKAPKLLIYGVTSLETGVPSRFSGSGSGTDFTLTISSLQPEDFATYYCQQYWSFPWTFGGGTKVEIKR
notes: HU-VH1-3 with HU-VL1-1; human IgG1
B5: 310P3C5-z6 humanized antibody (antibody, human IgG1, kappa, V domains shown)
VH: QVQLVQSGAEVKKPGASVKVSCKASGYTFTDFYMNWVRQAPGQGLEWIGDANPNNGGTTHNPRFKGRATMTTDTSTSTAYMELRSLRSDDTAVYYCARGGLPGDFDYWGQGTTVTVSS
VL: DIQMTQSPSSVSASVGDRVTITCKASEDIYNRLAWYQQKPGKAPKLLISGVTSLETGVPSRFSGSGSGTDFTLTISSLQPEDFATYYCQQYWSFPWTFGGGTKVEIKR
notes: HU-VH1-2 with HU-VL1-2; human IgG1
B6: 310P3C5-z10 humanized antibody (antibody, human IgG1, kappa, V domains shown)
VH: QVQLVQSGAEVKKPGASVKVSCKASGYTFTDFYMNWVRQAPGQGLEWIGDANPNNGGTTHNPRFKGRATMTTDTSTSTAYMELRSLRSDDTAVYYCARGGLPGDFDYWGQGTTVTVSS
VL: DIQMTQSPSSVSASVGDRVTITCKASEDIYNRLAWYQQKPGKAPKLLISGVTSLETGVPSRFSGSGSGKDFTLTISSLQPEDFATYYCQQYWSFPWTFGGGTKVEIKR
notes: HU-VH1-2 with HU-VL1-3; human IgG1
B7: 310P3C5-z5 humanized antibody (antibody, human IgG1, kappa, V domains shown)
VH: QVQLVQSGAEVKKPGASVKVSCKASGYTFTDFYMNWVRQAPGQGLEWMGDANPNNGGTTHNPRFKGRVTMTTDTSTSTAYMELRSLRSDDTAVYYCARGGLPGDFDYWGQGTTVTVSS
VL: DIQMTQSPSSVSASVGDRVTITCKASEDIYNRLAWYQQKPGKAPKLLISGVTSLETGVPSRFSGSGSGTDFTLTISSLQPEDFATYYCQQYWSFPWTFGGGTKVEIKR
notes: HU-VH1-1 with HU-VL1-2; human IgG1
B8: 310P3C5-z1 humanized antibody (antibody, human IgG1, kappa, V domains shown)
VH: QVQLVQSGAEVKKPGASVKVSCKASGYTFTDFYMNWVRQAPGQGLEWMGDANPNNGGTTHNPRFKGRVTMTTDTSTSTAYMELRSLRSDDTAVYYCARGGLPGDFDYWGQGTTVTVSS
VL: DIQMTQSPSSVSASVGDRVTITCKASEDIYNRLAWYQQKPGKAPKLLIYGVTSLETGVPSRFSGSGSGTDFTLTISSLQPEDFATYYCQQYWSFPWTFGGGTKVEIKR
notes: HU-VH1-1 with HU-VL1-1; human IgG1

Each binder was assayed against T1, ECD of human DLL3 protein fused with his tag (Acro Bio, Cat. No. DL3-H52H4) (human, UniProt Q9NYJ7 27-492) (assay: ELISA, hDLL3-his coated).
T1 construct: range 27-492; Bought protein; also called hDLL3-his; human DLL3-his protein; not shown: his tag
T1 sequence (looked up): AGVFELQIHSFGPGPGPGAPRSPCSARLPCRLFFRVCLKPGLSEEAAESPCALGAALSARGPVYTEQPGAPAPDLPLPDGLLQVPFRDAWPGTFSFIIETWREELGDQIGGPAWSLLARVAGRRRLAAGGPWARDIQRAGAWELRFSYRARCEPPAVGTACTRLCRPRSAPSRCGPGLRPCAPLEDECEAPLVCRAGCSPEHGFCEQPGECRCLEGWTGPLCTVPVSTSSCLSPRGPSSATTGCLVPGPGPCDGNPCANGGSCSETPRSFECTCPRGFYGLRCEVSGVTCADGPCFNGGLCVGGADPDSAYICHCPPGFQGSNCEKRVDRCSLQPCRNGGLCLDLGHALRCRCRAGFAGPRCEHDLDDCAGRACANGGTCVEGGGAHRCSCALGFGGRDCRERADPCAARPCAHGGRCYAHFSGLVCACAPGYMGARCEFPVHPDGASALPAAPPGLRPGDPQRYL

Binding result, binds:
B1, B2, B3, B4, B5, B6, B7, B8
